Source: patent US20090111098A1, “REPORTER GENE ASSAY” (Shionogi & Co., Ltd., priority 2005, published 2009)

Tested on: IL-4 regulatory element (STAT6)
Assay: Confirmation of transcriptional regulatory activity: IL-4 stimulation of reporter-transfected HeLa cells, HTRF ratio value
Format: cell-based, human
Conditions: HeLa cells transfected with reporter plasmid; IL-4 0-100 ng/ml, 3-48 hours
Description: HeLa cells (cells deposited with ATCC) were dispersed at a density of 1.2×10^5 cells/ml in a medium (MEM medium containing 10% fetal bovine serum, 100 units/ml penicillin G, 100 μg/ml streptomycin) and then put in a volume of 100 μl per well on a 96-well tissue culture plate. After 24 hours, 20 μg of the reporter plasmid prepared in Example 1, and 60 μl FuGENE6 (Roche), were added to 2 ml FBS-free medium, then left at room temperature for 20 minutes, and added in a volume of 5 μl to each well, followed by incubation for 24 hours to transfect the cells with the reporter plasmid.
After the culture supernatant of the cells was removed, 100 μl of IL-4 diluted with a medium was added at final concentrations of 0, 4, 20 and 100 ng/ml respectively to the respective wells and cultured for 3, 6, 24 and 48 hours. After culture, a cell lysis buffer (Tris buffered physiological saline containing 1% Triton X-100, 5 mM EDTA and a protease inhibitor cocktail) was added in a volume of 100 μl to each well and left at room temperature for 1 hour. […] After the reaction was finished, the fluorescence intensity of each well at 665 nm was measured with a time-resolved fluorescence microplate reader (Rubystar, BMG Labtechnologies). The measurement value was expressed as the ratio value to the fluorescence intensity of cryptate at 620 nm.

B1: IL-4: cytokine that binds IL-4 receptors and activates JAK1/JAK3 and transcription factor STAT6 (protein, UniProt P05112 25-153, looked up)
Interleukin-4: HKCDITLQEIIKTLNSLTEQKTLCTELTVTDIFAASKNTTEKETFCRAATVLRQFYSHHEKDTRCLGATAQQFHRHKQLIRFLKRLDRNLWGLAGLNSCPVKEANQSTLENFLERLKTIMREKYSKCSS
For B1, the “increase in ratio value by stimulation with IL-4” value was “about 10 fold”.
